From patent US20250368745A1 (published 2025) come the findings set out here.

Assay [1] has as its target T1, cynomolgus IL-18BP (cynomolgus monkey).
T1 construct: Generated in-house; also called cyIL-18BP; cyno IL-18BP
T1 chain: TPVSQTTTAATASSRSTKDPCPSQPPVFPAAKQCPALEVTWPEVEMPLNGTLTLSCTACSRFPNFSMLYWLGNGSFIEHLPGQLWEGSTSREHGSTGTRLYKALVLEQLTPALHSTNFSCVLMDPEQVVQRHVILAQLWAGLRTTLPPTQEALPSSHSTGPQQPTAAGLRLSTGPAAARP
The experiment in a line: BLI (Octet), mAb on AHC biosensor.

For assay [2], the target named is T2, human IL-18BP (interleukin-18 binding protein, isoform A) (human, UniProt O95998 31-194).
T2 construct: cell assays used Sino Biological 10357-H08H; PBMC assay 1 relies on endogenous IL-18BP; UniProt number is printed as 095998; also called hIL-18BP
T2 sequence: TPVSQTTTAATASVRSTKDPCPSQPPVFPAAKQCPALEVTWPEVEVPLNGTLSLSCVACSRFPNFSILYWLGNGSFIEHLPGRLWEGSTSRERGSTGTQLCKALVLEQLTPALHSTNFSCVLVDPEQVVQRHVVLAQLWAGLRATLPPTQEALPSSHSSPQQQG
The experiment in a line: BLI (Octet), mAb on AHC biosensor.

Assay [3] addresses T1, cynomolgus IL-18BP. The experiment in a line: ratio of BLI KDs for cyno and human IL-18BP.
Assay [4] deals with hypo-IL-18 (IL-18 tethered to IL-18BP by a flexible linker with TEV site, 6xHis) (human). The experiment in a line: BLI.
Assay [5] concerns the target T1, cynomolgus IL-18BP. As to the kind of experiment: BLI (Octet), mAb on AHC biosensor.
The target in assay [6] is T2, human IL-18BP (interleukin-18 binding …). The experiment in a line: BLI (Octet), mAb on AHC biosensor. The source holds these as a separate data set.
Assay [7] has the same target. The experiment in a line: cell-based or functional assay.
For assay [8], the target named is T1, cynomolgus IL-18BP. As to the kind of experiment: BLI (Octet), mAb on AHC biosensor.
For assay [9], the target named is T2, human IL-18BP (interleukin-18 binding …). The experiment in a line: BLI (Octet), mAb on AHC biosensor. The source holds these as a separate data set.
Assay [10] shares this target. The experiment in a line: cell-based or functional assay. This is another data set of the same source.
In assay [11] the target is T1, cynomolgus IL-18BP. As to the kind of experiment: BLI (Octet), mAb on AHC biosensor.
The target in assay [12] is T2, human IL-18BP (interleukin-18 binding …). The experiment in a line: BLI (Octet), mAb on AHC biosensor. The source holds these as a separate data set.
Assay [13] concerns the target T1, cynomolgus IL-18BP. The experiment in a line: BLI (Octet), mAb on AHC biosensor.
For assay [14], the target named is T2, human IL-18BP (interleukin-18 binding …). The experiment in a line: BLI (Octet), mAb on AHC biosensor. This is another data set of the same source.
The target in assay [15] is T1, cynomolgus IL-18BP. As to the kind of experiment: ratio of BLI KDs, cyno against human IL-18BP.
The target in assay [16] is T3, mouse IL-18BP (mouse, UniProt Q9Z0M9 29-193).
T3 construct: also called mIL-18BP
T3 sequence: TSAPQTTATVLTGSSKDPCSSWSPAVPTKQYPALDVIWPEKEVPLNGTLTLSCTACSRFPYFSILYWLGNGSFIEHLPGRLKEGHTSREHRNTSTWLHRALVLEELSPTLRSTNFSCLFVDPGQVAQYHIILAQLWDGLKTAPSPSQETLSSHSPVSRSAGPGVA
The experiment in a line: BLI (Octet), mAb on AHC biosensor.

The target of assay [17] is T3, mouse IL-18BP. The experiment in a line: BLI (Octet), mAb on AHC biosensor. This is another data set of the same source.
The target of assay [18] is T2, human IL-18BP (interleukin-18 binding …). As to the kind of experiment: cell-based or functional assay. This is another data set of the same source.
For assay [19], the target named is T3, mouse IL-18BP. The experiment in a line: BLI (Octet), mAb on AHC biosensor. The source holds these as a separate data set.
Assay [20] deals with T1, cynomolgus IL-18BP. As to the kind of experiment: BLI single-concentration screen, apparent KD.
In assay [21] the target is T2, human IL-18BP (interleukin-18 binding …). As to the kind of experiment: BLI single-concentration screen, apparent KD.
Assay [22] addresses T3, mouse IL-18BP. The experiment in a line: BLI (Octet), mAb on AHC biosensor. This is another data set of the same source.

Where “and” joins values, the source holds several entries; their conditions need not be identical. Equal entries are not always repeated. Where two headings read alike, the source gives them in different places.

Sequence of hypo-IL-18 (IL-18 tethered to IL-18BP by a flexible linker with TEV site, 6xHis) (human) (chain, as listed by the source limits assumed): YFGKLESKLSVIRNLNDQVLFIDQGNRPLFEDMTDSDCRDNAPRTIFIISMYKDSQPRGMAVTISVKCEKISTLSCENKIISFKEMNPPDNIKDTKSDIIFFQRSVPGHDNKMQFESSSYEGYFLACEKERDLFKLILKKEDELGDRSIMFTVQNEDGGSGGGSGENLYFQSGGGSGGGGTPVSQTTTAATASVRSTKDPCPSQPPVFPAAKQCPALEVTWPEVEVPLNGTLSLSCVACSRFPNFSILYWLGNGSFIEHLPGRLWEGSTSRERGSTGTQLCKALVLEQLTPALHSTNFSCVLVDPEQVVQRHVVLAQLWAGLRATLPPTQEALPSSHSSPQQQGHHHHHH

B1: SA04a (antibody, human IgG1, V domains shown)
VH: QIQFVQSGPEVKTPGETVKISCKASVYTFTEYPMHWLKQAPGEDFEWMGWIHTYSGEPTYADDFKGRFAFSLETSASTAYLQINNLKTEDTATYFCARGRYYGALDYWGQGTALT
VL: DIQMTQTPSSLSASLGDRVTISCRASQDISNYLNWYQQKPDGTVKLLIYYTSRLHSGVPSRFSGSGSGTDYSLTISNLEQEDVATYFCQHGNTLPRTFGGGTKLEIK
notes: murine variable regions on human IgG1 kappa constant regions
Regarding B1, the Kd amounted to 0.67 nM in assay [1]; 0.25 nM in assay [2]; 1.5 nM in [5]; 0.26 nM in assay [6]; 1.5 nM in assay [8]; 0.26 nM in assay [9]. Further, the “Human/Cyno Fold Difference” value in assay [3] turned out to be 5.8 fold. Moreover, the binding result in assay [4] is listed as “no binding”. In assay [7], the “EC50 (nM), HEK293 IL-18 Reporter Assay (SEAP)” value is 0.1 nM. In addition, the “EC50 (nM), KG-1 Assay (IFNγ)” value in [10] turned out to be 2.6 nM.

B2: SA44a (antibody, human IgG1, V domains shown)
VH: DVQLQESGPDLVKPSQSLSLTCTVTGYSITSDYNCHWIRQFPGNKLEWMGYIHYSGSTNYNPSLKSRISITRDTSKNQFFLQLNSVTAEDTATYYCARNYGSIYVNYFDYWGQGTTLTVSS
VL: QIVLTQSPAIMSASPGEKVTISCSASSSVSYMYWYQQEPGSSPKPWIYRTSNLASGVPPRFSGSGSGTSYSLTISSMEAEDAATYFCQQYHSYPTFGGGTKLEIK
notes: as for B1
With B2, the Kd in assay [1] was determined as 0.67 nM; in assay [2], 0.51 nM; in assay [11], 0.524 nM; in assay [12] it was 0.685 nM; in assay [13], 0.525 nM; in assay [14], 0.688 nM. Also, the Kd in [5] was found to be 0.525 nM; in assay [6], 0.688 nM. For the same molecule, the “Human/Cyno Fold Difference” value in assay [3] was determined as 1 fold. For the same molecule, the binding result in assay [4] and in assay [16] was “no binding” in each case. Besides, the Cyno/human in [15] stood at 0.76 ratio.

B3: SA50a (antibody, human IgG1, V domains shown)
VH: QVQLVQSGSELKKPGASVKVSCKASVYTFTEYPMHWLRQAPGQGFEWMGWIHTYSGEPTYADDFKGRFVFSLDTSVSTAYLQISSLKAEDTAVYFCARGRYYGALDYWGQGTALTVSS
VL: DIQMTQSPSSLSASVGDRVTITCRASQDISNYLNWYQQKPGKAVKLLIYYTSRLHSGVPSRFSGSGSGTDYTFTISSLQPEDIATYFCQHGNTLPRTFGGGTKLEIK
notes: humanized; human IgG1 (suffix a), kappa; also called humanized SA04a
For B3, the binding result in [17] is “no binding”. Besides, the Kd is 4.27 nM in assay [8] and 0.41 nM in [9].

B4: SA301a (antibody, human IgG1, V domains shown)
VH: QVQLQESGPGLVKPSQTLSLTCTVSGYSITSDYNSHWIRQPPGKGLEWIGYIHYSGSTNYNPSLKSRVTISRDTSKNQFSLKLSSVTAADTAVYYCARNYGSIYVNYFDYWGQGTLVTVSS
VL: EIVLTQSPATLSLSPGERATLSCSASSSVSYMYWYQQKPGQAPRPLIYRTSNLASGIPARFSGSGSGTDFTLTISSLEPEDFAVYYCQQYHSYPTFGGGTKVEIK
notes: humanized; human IgG1 (suffix a), kappa; also called humanized SA44a
As to B4, the “EC50 in PBMC Assay 1 (endogenous IL-18BP), IFNγ” value in assay [18] was determined as 2 nM. Also, the Kd in assay [11] was 0.102 nM; in [12], 0.217 nM; in assay [13], 0.078 nM; in [14] it was 0.162 nM; in assay [20], 0.1 nM and 0.2 nM; in [21] it was 0.2 nM and 0.3 nM. The binding result in [19] is reported as “no binding”. Besides, the Cyno/human in assay [15] was 0.47 ratio. For the same molecule, in assay [10], the “EC50 (nM), KG-1 Assay (IFNγ)” value is 1.3 nM.

B5: SA07a (antibody, human IgG1, V domains shown)
VH: EVQLQQSGPELVKPGASVKISCKASGYTFTDYYMNWVKQSHGKSLEWIGDINPNNGGTSYNQKFKGKATLTVDKSSNTAYMELRSLTSEDSAVYYCAREGVYSNYGGYFDYWGQGTTLTVSS
VL: QIVLTQSPALMSASPGEKVTMTCSASSSVSYMYWYQQKPRSSPKPWIYLTSNLASGVPARFSGSGSGTSYSLTISSMEAEDAATYYCQQWSSNPPTFGSGTKLEIK
notes: as for B1
On to B5, for which the binding result in [22] is “no binding”.
